The supplement of paper PMC10567573

B1: MATN2 (parent)
chain: TDDSYSCHCLKGFTLNPDKKTCRR

Variants of: B1
Assay: protein stability index of a GFP-peptide fusion (GPS, HEK-293T) (PSI 1-6); higher = more stable
Conditions: c terminus: a fixed tail appended
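Also: lentivirally expressed fusions sorted by FACS into six bins by GFP to DsRed ratio, PSI derived from sequencing read proportions per bin multiplied by bin number.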

| Variant | protein stability index |
| --- | --- |
| TDDSYSCHCHKGFTLNPDKKTCRR | 1.86 |
| TDDSYSCHCRKGFTLNPDKKTCRR | 1.65 |
| TDDSYSCHCCKGFTLNPDKKTCRR | 3.11 |
| TDDSYSCHCTKGFTLNPDKKTCRR | 1.93 |
| TDDSYSCHCPKGFTLNPDKKTCRR | 3.56 |
| TDDSYSCHCYKGFTLNPDKKTCRR | 2.32 |
| TDDSYSCHCSKGFTLNPDKKTCRR | 2.55 |
| TDDSYSCHCNKGFTLNPDKKTCRR | 3.04 |
| TDDSYSCHCIKGFTLNPDKKTCRR | 2.15 |
| TDDSYSCHCLKGFSLNPDKKTCRR | 2.13 |
| TDDSYSCHCLKGFVLNPDKKTCRR | 3.45 |
| TDDSYSCHCLKGFWLNPDKKTCRR | 2.69 |
| TDDSYSCHCLKGFALNPDKKTCRR | 2.69 |
| TDDSYSCHCLKGFLLNPDKKTCRR | 2.01 |
| TDDSYSCHCLKGFNLNPDKKTCRR | 2.68 |
| TDDSYSCHCLKGFTLNPDKKPCRR | 2.36 |
| TDDSYSCHCLKGFTLNPDKKSCRR | 2.36 |
| TDDSYSCHCLKGFTLNPDKKVCRR | 2.41 |
| TDDSYSCHCLKGFTLNPDKKICRR | 2.4 |
| TDDSYSCHCLKGFTLNPDKKKCRR | 2.06 |
| TDDSYSCHCLKGFTLNPDKKTKRR | 3.37 |
| TDDSYSCHCLKGFTLNPDKKTTRR | 2.44 |
| TDDSYSCHCLKGFTLNPDKKTLRR | 2.93 |
| TDDSYSCHCLKGFTLNPDKKTFRR | 2.16 |

| Variant | protein stability index |
| --- | --- |
| TDDSYSCHCLKGFTLNPDKKTSRR | 2.42 |
| TDDSYSCHCLKGFTLNPDKKTPRR | 3 |
| TDDSYSCHCLKGFTLNPDKKTARR | 2 |
| TDDSYSCHCLKGFTLNPDKKTRRR | 2.86 |
| TEDSYSCHCLKGFTLNPDKKTCRR | 1.98 |
| TCDSYSCHCLKGFTLNPDKKTCRR | 1.88 |
| TSDSYSCHCLKGFTLNPDKKTCRR | 2.11 |
| TIDSYSCHCLKGFTLNPDKKTCRR | 2.02 |
| TQDSYSCHCLKGFTLNPDKKTCRR | 1.82 |
| TTDSYSCHCLKGFTLNPDKKTCRR | 2.08 |
| TPDSYSCHCLKGFTLNPDKKTCRR | 1.66 |
| TKDSYSCHCLKGFTLNPDKKTCRR | 2.85 |
| TYDSYSCHCLKGFTLNPDKKTCRR | 1.26 |
| TRDSYSCHCLKGFTLNPDKKTCRR | 2.29 |
| TDKSYSCHCLKGFTLNPDKKTCRR | 1.93 |
| TDLSYSCHCLKGFTLNPDKKTCRR | 2.36 |
| TDTSYSCHCLKGFTLNPDKKTCRR | 2.01 |
| TDYSYSCHCLKGFTLNPDKKTCRR | 1.76 |
| TDCSYSCHCLKGFTLNPDKKTCRR | 2.17 |
| TDVSYSCHCLKGFTLNPDKKTCRR | 2.41 |
| TDASYSCHCLKGFTLNPDKKTCRR | 2.24 |
| TDFSYSCHCLKGFTLNPDKKTCRR | 1.67 |
| TDDSYSCDCLKGFTLNPDKKTCRR | 2.05 |
| TDDSYSCSCLKGFTLNPDKKTCRR | 2.3 |

| Variant | protein stability index |
| --- | --- |
| TDDSYSCECLKGFTLNPDKKTCRR | 2.84 |
| TDDSYSCACLKGFTLNPDKKTCRR | 1.66 |
| TDDSYSCVCLKGFTLNPDKKTCRR | 2.33 |
| TDDSYSCLCLKGFTLNPDKKTCRR | 2.4 |
| TDDSYSCHCLKGFTLNWDKKTCRR | 1.65 |
| TDDSYSCHCLKGFTLNYDKKTCRR | 2.26 |
| TDDSYSCHCLKGFTLNGDKKTCRR | 2.57 |
| TDDSYSCHCLKGFTLNRDKKTCRR | 2.35 |
| TDDSYSCHCLKGFTLNHDKKTCRR | 2.42 |
| TDDSYSCHCLKGFTLNMDKKTCRR | 2.71 |
| TDDSYSCHCLKGFTLNQDKKTCRR | 2.14 |
| TDDSYSCHCLKGFTLNCDKKTCRR | 3.48 |
| TDDSYSCHCLKGHTLNPDKKTCRR | 1.98 |
| TDDSYSCHCLKGVTLNPDKKTCRR | 2.21 |
| TDDSYSCHCLKGITLNPDKKTCRR | 2.05 |
| TDDSYSCHCLKGLTLNPDKKTCRR | 2.77 |
| TDDSYSCHCLKGRTLNPDKKTCRR | 2.14 |
| TDDSYSCHCLKGYTLNPDKKTCRR | 3.04 |
| TDDSYSCHCLKGQTLNPDKKTCRR | 2.02 |
| TDDWYSCHCLKGFTLNPDKKTCRR | 1.81 |
| TDDFYSCHCLKGFTLNPDKKTCRR | 1.83 |
| TDDKYSCHCLKGFTLNPDKKTCRR | 2.56 |
| TDDMYSCHCLKGFTLNPDKKTCRR | 2.22 |
| TDDCYSCHCLKGFTLNPDKKTCRR | 1.8 |

| Variant | protein stability index |
| --- | --- |
| TDDEYSCHCLKGFTLNPDKKTCRR | 2.79 |
| TDDDYSCHCLKGFTLNPDKKTCRR | 2 |
| TDDYYSCHCLKGFTLNPDKKTCRR | 1.77 |
| TDDSYSCHCLKGFTRNPDKKTCRR | 2.81 |
| TDDSYSCHCLKGFTDNPDKKTCRR | 2.14 |
| TDDSYSCHCLKGFTGNPDKKTCRR | 1.74 |
| TDDSYSCHCLKGFTNNPDKKTCRR | 2.03 |
| TDDSYSCHCLKGFTSNPDKKTCRR | 2.17 |
| TDDSYSCHCLKGFTHNPDKKTCRR | 1.97 |
| TDDSNSCHCLKGFTLNPDKKTCRR | 3.36 |
| TDDSESCHCLKGFTLNPDKKTCRR | 2.74 |
| TDDSDSCHCLKGFTLNPDKKTCRR | 2.72 |
| TDDSHSCHCLKGFTLNPDKKTCRR | 2.66 |
| TDDSRSCHCLKGFTLNPDKKTCRR | 2 |
| TDDSYSCHCLDGFTLNPDKKTCRR | 2.44 |
| TDDSYSCHCLAGFTLNPDKKTCRR | 2.27 |
| TDDSYSCHCLYGFTLNPDKKTCRR | 2.4 |
| TDDSYSCHCLTGFTLNPDKKTCRR | 1.96 |
| TDDSYSCHCLIGFTLNPDKKTCRR | 2.08 |
| TDDSYSCHCLGGFTLNPDKKTCRR | 2.78 |
| TDDSYSCHCLFGFTLNPDKKTCRR | 2.27 |
| TDDSYSCHCLPGFTLNPDKKTCRR | 2.36 |
| TDDSYSCHCLEGFTLNPDKKTCRR | 2.87 |
| TDDSYSCHCLWGFTLNPDKKTCRR | 2.2 |

| Variant | protein stability index |
| --- | --- |
| TDDSYSCHCLSGFTLNPDKKTCRR | 2.23 |
| TDDSYSCHCLMGFTLNPDKKTCRR | 1.61 |
| TDDSYSCHCLNGFTLNPDKKTCRR | 2.15 |
| TDDSYSCHCLKGFTLNPDKKTCQR | 2.78 |
| TDDSYSCHCLKGFTLNPDKKTCMR | 1.5 |
| TDDSYSCHCLKGFTLNPDKKTCPR | 2.56 |
| TDDSYSCHCLKGFTLNPDKKTCYR | 2.2 |
| TDDSYSCHCLKGFTLNPDKKTCDR | 2.62 |
| TDDSYSCHCLKGFTLNPDKKTCIR | 2.02 |
| TDDSYSCHCLKGFTLNPDKKTCTR | 2.52 |
| TDDSYSCHCLKGFTLNPDKKTCWR | 2.26 |
| TDDSYSCHCLKGFTLNPDKKTCCR | 2.83 |
| TDDSYSCHCLKGFTLNPDKMTCRR | 1.78 |
| TDDSYSCHCLKGFTLNPDKRTCRR | 2.03 |
| TDDSYSCHCLKGFTLNPDKETCRR | 2.06 |
| TDDSYSCHCLKGFTLNPDKWTCRR | 1.48 |
| TDDSYSCHCLKGFTLNPDKGTCRR | 2.09 |
| TDDSYSCHCLKGFTLNPDKATCRR | 2.68 |
| TDDSYSCHCLKGFTLNPDKYTCRR | 1.53 |
| TDDSYSCHCLKGFTLNPDKSTCRR | 2.33 |
| TDDSYSCHCLKEFTLNPDKKTCRR | 2.27 |
| TDDSYSCHCLKVFTLNPDKKTCRR | 1.79 |
| TDDSYSCHCLKMFTLNPDKKTCRR | 1.9 |
| TDDSYSCHCLKPFTLNPDKKTCRR | 2.63 |

| Variant | protein stability index |
| --- | --- |
| TDDSYSCHCLKHFTLNPDKKTCRR | 2.91 |
| TDDSYSCHCLKSFTLNPDKKTCRR | 2.1 |
| TDDSYSCHCLKRFTLNPDKKTCRR | 2.08 |
| KDDSYSCHCLKGFTLNPDKKTCRR | 1.75 |
| MDDSYSCHCLKGFTLNPDKKTCRR | 2.47 |
| IDDSYSCHCLKGFTLNPDKKTCRR | 2.1 |
| CDDSYSCHCLKGFTLNPDKKTCRR | 2 |
| DDDSYSCHCLKGFTLNPDKKTCRR | 2.55 |
| QDDSYSCHCLKGFTLNPDKKTCRR | 1.75 |
| GDDSYSCHCLKGFTLNPDKKTCRR | 2.71 |
| TDDSYSCHCLKGFTLNPDKKTCRL | 2.38 |
| TDDSYSCHCLKGFTLNPDKKTCRT | 3.15 |
| TDDSYSCHCLKGFTLNPDKKTCRI | 1.6 |
| TDDSYSCHCLKGFTLNPDKKTCRH | 4.06 |
| TDDSYSCHCLKGFTLNPDKKTCRP | 2.46 |
| TDDSYSCHCLKGFTLNPDKKTCRA | 2.87 |
| TDDSYSCHCLKGFTLNPFKKTCRR | 2.01 |
| TDDSYSCHCLKGFTLNPQKKTCRR | 1.97 |
| TDDSYSCHCLKGFTLNPKKKTCRR | 2.86 |
| TDDSYSCHCLKGFTLNPWKKTCRR | 2.17 |
| TDDSYSCHCLKGFTLNPTKKTCRR | 2.24 |
| TDDSYSCHCLKGFTLNPAKKTCRR | 2.11 |
| TDDSYSCHCLKGFTLNPRKKTCRR | 2.65 |
| TDDSYSCHCLKGFTLNPNKKTCRR | 2.38 |

| Variant | protein stability index |
| --- | --- |
| TDDSYSCHCLKGFTLNPVKKTCRR | 2.42 |
| TDDSYSCHCLKGFTLNPIKKTCRR | 2.62 |
| TDDSYSCHCLKGFTLNPGKKTCRR | 2.36 |
| TDDSYSCHCLKGFTLSPDKKTCRR | 2.24 |
| TDDSYSCHCLKGFTLDPDKKTCRR | 2.17 |
| TDDSYSCHCLKGFTLRPDKKTCRR | 2.75 |
| TDDSYSCHCLKGFTLLPDKKTCRR | 2.24 |
| TDDSYSCHCLKGFTLGPDKKTCRR | 2.23 |
| TDDSYSCHCLKGFTLVPDKKTCRR | 2.56 |
| TDDSYSCHCLKGFTLNPDQKTCRR | 2.41 |
| TDDSYSCHCLKGFTLNPDFKTCRR | 1.61 |
| TDDSYSCHCLKGFTLNPDLKTCRR | 2.21 |
| TDDSYSCHCLKGFTLNPDWKTCRR | 1.16 |
| TDDSYSCHCLKGFTLNPDVKTCRR | 2.3 |
| TDDSYSCHCLKGFTLNPDYKTCRR | 2.25 |
| TDDSYSCHCLKGFTLNPDSKTCRR | 2.18 |
| TDDSYSCHCLKGFTLNPDPKTCRR | 2.19 |
| TDDSYSCHCLKGFTLNPDEKTCRR | 2.3 |
| TDDSYSCHCLKGFTLNPDCKTCRR | 4.92 |
| TDDSYSCHELKGFTLNPDKKTCRR | 4.37 |
| TDDSYSCHWLKGFTLNPDKKTCRR | 3.79 |
| TDDSYSCHGLKGFTLNPDKKTCRR | 4.47 |
| TDDSYSCHALKGFTLNPDKKTCRR | 4.6 |
| TDDSYSCHMLKGFTLNPDKKTCRR | 3.96 |

| Variant | protein stability index |
| --- | --- |
| TDDSYSCHLLKGFTLNPDKKTCRR | 3.93 |
| TDDSYSCHTLKGFTLNPDKKTCRR | 3.24 |
| TDDSYSCHHLKGFTLNPDKKTCRR | 3.75 |
| TDDSYPCHCLKGFTLNPDKKTCRR | 2.5 |
| TDDSYWCHCLKGFTLNPDKKTCRR | 2.32 |
| TDDSYCCHCLKGFTLNPDKKTCRR | 2.55 |
| TDDSYHCHCLKGFTLNPDKKTCRR | 2.55 |
| TDDSYECHCLKGFTLNPDKKTCRR | 2.31 |
| TDDSYMCHCLKGFTLNPDKKTCRR | 1.68 |
| TDDSYRCHCLKGFTLNPDKKTCRR | 2.4 |
| TDDSYFCHCLKGFTLNPDKKTCRR | 1.26 |
| TDDSYSFHCLKGFTLNPDKKTCRR | 3.96 |
| TDDSYSQHCLKGFTLNPDKKTCRR | 4.27 |
| TDDSYSDHCLKGFTLNPDKKTCRR | 4.78 |
| TDDSYSWHCLKGFTLNPDKKTCRR | 3.21 |
| TDDSYSRHCLKGFTLNPDKKTCRR | 3.88 |
| TDDSYSGHCLKGFTLNPDKKTCRR | 4.45 |
| TDDSYSNHCLKGFTLNPDKKTCRR | 4.38 |
| TDDSYSLHCLKGFTLNPDKKTCRR | 4.59 |
| TDDSYSHHCLKGFTLNPDKKTCRR | 3.54 |
